The subject of the test is human APCs (myeloid cells). As to the kind of experiment: APC-tumor co-culture / myeloid cell stimulation, surface markers by flow cytometry. The format is cell-based. The note with it: 18 hours of stimulation. The source says:
Human antigen presenting cells (APCs) were negatively selected from human peripheral blood mononuclear cells obtained from healthy blood donors (Stanford Blood Center) by density gradient centrifugation using a RosetteSep Human Monocyte Enrichment Cocktail (Stem Cell Technologies) containing monoclonal antibodies against CD2, CD3, CD8, CD19, CD56, CD66b and CD235a. Immature APCs were subsequently purified to >97% purity via negative selection using an EasySep Human Monocyte Enrichment Kit without CD16 depletion containing monoclonal antibodies against CD2, CD3, CD19, CD20, CD56, CD66b, CD123 and CD235a.
Tumor cells were resuspended in PBS with 0.1% fetal bovine serum (FBS) at 1 to 10×10^6 cells/mL. Cells were subsequently incubated with 2 μM CFSE to yield a final concentration of 1 μM. […]
2×10^5 APCs were incubated with or without 6.5×10^5 autologous or allogeneic CFSE-labeled tumor cells in 96-well plates (Corning) containing IMDM medium (Gibco) supplemented with 10% fetal bovine serum, 100 U/mL penicillin, 100 μg/mL streptomycin, 2 mM L-glutamine, sodium pyruvate, non-essential amino acids, 50 μM 2-ME and, where indicated, various concentrations of anti-tumor antibody and the indicated adjuvants. Cells and cell-free supernatants were analyzed after 18 hours via flow cytometry. […]
Background: Flow cytometry measures light scatter and fluorescence of single cells or particles in a stream.

B1: Nivolumab IgG1 immunoconjugate (conjugate, chains of the INN, looked up)
VH: QVQLVESGGGVVQPGRSLRLDCKASGITFSNSGMHWVRQAPGKGLEWVAVIWYDGSKRYYADSVKGRFTISRDNSKNTLFLQMNSLRAEDTAVYYCATNDDYWGQGTLVTVSS
VL: EIVLTQSPATLSLSPGERATLSCRASQSVSSYLAWYQQKPGQAPRLLIYDASNRATGIPARFSGSGSGTDFTLTISSLEPEDFAVYYCQQSSNWPRTFGQGTKVEIK
modifications: IgG1 adjuvant immunoconjugate
On to B1, for which the “APC / myeloid / dendritic cell activation (overall)” value is reported as “very potent”.

For the origin of these results see patent US11547761B1, “Antibody adjuvant conjugates” (The Board of Trustees of the Leland Stanford Junior …, priority 2016, dated 2023).
